Key:
[1] = target: HA-rat μ opioid receptor (rat) (UniProt P33535)
[2] = target: endogenous μ opioid receptor of rat locus coeruleus neurones (rat (endogenous in locus coeruleus neurones)) (UniProt P33535)
[3] = target: human μ opioid receptor-Renilla luciferase II (human) (UniProt P35372)
[4] = target: HA-rat μ opioid receptor (rat) (UniProt P33535); remark: listed apart in the source
[5] = target: human μ opioid receptor-Renilla luciferase II (human) (UniProt P35372); remark: listed apart in the source

Chain of UniProt P35372 (P35372 whole entry): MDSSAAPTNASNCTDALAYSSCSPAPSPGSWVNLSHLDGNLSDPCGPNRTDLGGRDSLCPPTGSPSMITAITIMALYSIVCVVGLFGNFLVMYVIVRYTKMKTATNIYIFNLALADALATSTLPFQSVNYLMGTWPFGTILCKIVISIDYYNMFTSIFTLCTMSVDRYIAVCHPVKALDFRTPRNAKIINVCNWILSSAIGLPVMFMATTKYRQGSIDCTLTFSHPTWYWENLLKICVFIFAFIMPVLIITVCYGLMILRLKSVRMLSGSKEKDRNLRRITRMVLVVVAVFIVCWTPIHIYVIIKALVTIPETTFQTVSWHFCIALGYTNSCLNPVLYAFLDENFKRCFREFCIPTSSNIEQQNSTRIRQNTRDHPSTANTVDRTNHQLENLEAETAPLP

G protein activation BRET (Gαi1-RlucII / GFP10-Gγ2) in HEK293T cells, log EC50 (M) [1]: -6.48 log EC50 (M)
cell surface receptor loss (ELISA of HA-tagged receptor, 1 h agonist) in HEK293T cells, log EC50 (M) [1]: -6.14 log EC50 (M)
opioid-evoked GIRK current in rat locus coeruleus neurones (whole-cell patch clamp), log EC50 (M) [2]: -7.29 log EC50 (M)
β-arrestin 2 recruitment BRET (μ opioid receptor-RlucII / β-arrestin 2-GFP10) in HEK293T cells, log EC50 (M) [3]: -5.7 log EC50 (M)
KA (equilibrium dissociation constant) by Furchgott's method from G protein activation BRET curves with and without β-FNA, whole cells [4]: 5.6 µM
KA (equilibrium dissociation constant) by Furchgott's method from β-arrestin 2 recruitment BRET curves with and without β-FNA, whole cells [5]: 1580 nM
Substance: DAMGO ([D-Ala^2, N-MePhe^4, Gly-ol]-enkephalin) (peptide)
